Values of other authors, collected in article PMC7143316.

What was measured:
[1] = target: Kv1.2 (Homo sapiens) (UniProt P16389)
[2] = target: Kv1.3 (Homo sapiens) (UniProt P22001)
[3] = target: Kv1.1 (Homo sapiens) (UniProt Q09470)
Sequence of UniProt Q09470 (Q09470 whole entry): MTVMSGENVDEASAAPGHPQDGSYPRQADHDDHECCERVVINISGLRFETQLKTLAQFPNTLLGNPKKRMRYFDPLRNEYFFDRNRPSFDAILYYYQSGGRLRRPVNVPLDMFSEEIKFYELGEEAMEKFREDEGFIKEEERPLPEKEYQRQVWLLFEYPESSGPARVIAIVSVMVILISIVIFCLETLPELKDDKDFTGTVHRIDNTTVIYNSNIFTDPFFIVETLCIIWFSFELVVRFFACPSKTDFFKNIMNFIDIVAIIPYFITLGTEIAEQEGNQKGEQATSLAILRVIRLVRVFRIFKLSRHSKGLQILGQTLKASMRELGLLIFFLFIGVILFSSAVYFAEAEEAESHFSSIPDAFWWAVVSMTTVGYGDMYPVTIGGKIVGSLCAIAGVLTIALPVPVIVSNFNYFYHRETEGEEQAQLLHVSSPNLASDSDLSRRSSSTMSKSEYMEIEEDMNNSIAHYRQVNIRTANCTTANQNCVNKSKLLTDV

Sequence of UniProt P22001 (P22001 whole entry): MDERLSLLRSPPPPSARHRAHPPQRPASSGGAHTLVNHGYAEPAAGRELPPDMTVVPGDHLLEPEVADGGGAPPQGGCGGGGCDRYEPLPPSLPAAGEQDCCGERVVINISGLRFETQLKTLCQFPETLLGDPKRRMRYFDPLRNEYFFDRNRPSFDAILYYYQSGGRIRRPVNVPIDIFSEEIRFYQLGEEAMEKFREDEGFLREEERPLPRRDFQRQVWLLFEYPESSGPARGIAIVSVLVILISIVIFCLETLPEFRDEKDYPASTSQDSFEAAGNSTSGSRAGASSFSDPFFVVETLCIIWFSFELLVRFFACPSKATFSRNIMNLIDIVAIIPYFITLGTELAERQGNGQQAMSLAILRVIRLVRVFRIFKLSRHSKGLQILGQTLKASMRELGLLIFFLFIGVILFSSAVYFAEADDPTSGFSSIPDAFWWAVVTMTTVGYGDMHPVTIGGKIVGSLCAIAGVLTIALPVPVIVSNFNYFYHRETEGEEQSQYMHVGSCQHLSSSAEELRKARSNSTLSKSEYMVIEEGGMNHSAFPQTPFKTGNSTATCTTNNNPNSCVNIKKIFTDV
Sequence of UniProt P16389 (P16389 whole entry): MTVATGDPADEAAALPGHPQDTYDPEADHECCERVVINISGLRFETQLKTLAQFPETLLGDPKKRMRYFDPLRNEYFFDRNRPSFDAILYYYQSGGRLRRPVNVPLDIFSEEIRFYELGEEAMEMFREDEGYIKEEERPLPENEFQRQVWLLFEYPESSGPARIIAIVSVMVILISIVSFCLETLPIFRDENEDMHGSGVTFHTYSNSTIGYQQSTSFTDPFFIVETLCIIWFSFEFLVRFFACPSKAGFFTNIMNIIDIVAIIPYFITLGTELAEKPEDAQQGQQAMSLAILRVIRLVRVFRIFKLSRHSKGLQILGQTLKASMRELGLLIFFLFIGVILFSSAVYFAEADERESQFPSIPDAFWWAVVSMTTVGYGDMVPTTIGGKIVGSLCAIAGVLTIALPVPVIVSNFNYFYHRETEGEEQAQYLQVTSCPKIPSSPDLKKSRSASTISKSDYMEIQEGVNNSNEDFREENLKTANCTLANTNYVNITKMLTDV

For BgK (from UniProt P29186), the Kd [1] is listed as 15 nM, the Kd [2] is listed as 10 nM and the Kd [3] is listed as 6 nM.
